Experimental data: the nanobody polyreactivity screen of Harvey et al. (2022)

test: yeast display, Sf9 membrane polyspecificity reagent, FACS + sequencing; frameworks hold sequencing errors
In short: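 Nanobodies came from a synthetic yeast display library in Saccharomyces cerevisiae BJ5465, induced with galactose for 36–48 hours and stained for 1 hour at 4 °C with 10% biotinylated, detergent-solubilized Sf9 membrane reagent. Cells were enriched on streptavidin microbeads and then FACS-sorted, with low and high (top ~1%) gates set on anti-HA fluorescence for expression and streptavidin fluorescence for reagent binding. Each polyreactivity label reflects the gate a clone came from. Genes were amplified by colony PCR, sequenced by MiSeq 2 × 250 and filtered by CDR length.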

Sequence	polyreactivity (PSR sort gate)
QVQLVESGGGLVQAGGSLRLSCAASGYNFERNAMGWYRPAPGKERELVAAITDDGDDTYYADSVKGRFTISRDNAKNTVYLQMNSLKPEDTAVYYCAKDLYYGDYYYWGQGTQVTVSS	low polyreactivity
QVQLVESGGGLVQAGGSLRLSCAASGYNFPYYAMGWYRQAPGKERELVAGITTDGSSTYYADSVKGRFTISRDNAKNTVYLQMNSLKPEDTAVYYCYGYPGYTWGWYDYWGQGTQVTVSS	low polyreactivity
QVQLVESGGGLVQAGGSLRLSCAASGYNFRQYAMGWYRQATGKEREFVAAISQTGGSTYYADSVKGRFTISRDNANNTVYLQMNSLKPEDTAVYYCAARYRGQRYRKLDYWGQGTQVTVSS	high polyreactivity
QVQLVESGGGLVQAGGSLRLSCAASGYNFYINPMGWYRQAPGKERELVATIRRRGGSTYYADSVKGRFTISRDNAKNTVYLQMNSLKPEDTAVYYCNAVTLGGKYVYQYRRGFDYWGQGTQVTVSS	high polyreactivity
QVQLVESGGGLVQAGGSLRLSCAASGYNLSVNAMGWYRQAPGKERELVATIDIAGGSTYYADSVNGRFTISRDNAKNTVYLQMNSMKPVDTAVYYCNTEWNSLSKSSLGGRYDHWGQCTQVTVSS	low polyreactivity
QVQLVESGGGLVQAGGSLRLSCAASGYTAYTYTMGWYRQAPGKVREWVAAMSRRSDSTYADSVKGRFTISRDNAKNTVYLQMNSLKPEDTADYYCAAVRVSYRSLSKSYYWGQGTQVTVSS	high polyreactivity
QVQLVESGGGLVQAGGSLRLSCAASGYTFALYAMGWYRQAPGKERELVAAITWNGGSTYYADSVKGRFTISRDNAKNTVYLQMNSLKPEDTSVYYCNVESSQSSSGFDYWGQGTQVTVSL	low polyreactivity
QVQLVESGGGLVQAGGSLRLSCAASGYTFARNAMGWYRQAPGKERELVADINWSGTNTYYADSVKGRFTISRDNAKNTVYLQMNSLKPEDTAVDYCAKDLYFSGYEFDYWGQGTQVTVSS	low polyreactivity
QVQLVESGGGLVQAGGSLRLSCAASGYTFASNAMGWYRPAPGKERELVAAITRGGSTNYADSVKGRFTISRDNAKNTVYLQMNSLKPEDTAVYYFAAPRYRHTRKGGYWGQGTQVTVSS	low polyreactivity
QVQLVESGGGLVQAGGSLRLSCAASGYTFAVYAMGWYRQAPGKERELVAAISSDGSTNYADSVKGRFTISRDNAKNTVYFQMNSLKPEDTSVYYCAKVYKDLAGPFYDYWGQGTQVTVSS	low polyreactivity
QVQLVESGGGLVQAGGSLRLSCAASGYTFAWYAMGWYRQAPGKERELVAAINNGGSTSYADSVKGRFTISRDNAKNTVYLQMNSLKPEDTAVYYCNADHYGGPHWMDYWGQGTQVTVSS	low polyreactivity
QVQLVESGGGLVQAGGSLRLSCAASGYTFAWYAMGWYRQAPGKERELVAAITVSGGSTYYADSVKGRFTISRDNAKNTVYLQMNSLKPEDTAVYYCAAVGKSPSRFGYWGQGTQVTVSS	low polyreactivity
QVQLVESGGGLVQAGGSLRLSCAASGYTFDGYAMGWYRQAPGKERELVAAINSGGGTYYADSVKGRFTISRDNAKNTVYLQMNSLKPEDTAVYYCAKYTYDYWGQGTQVTVSS	low polyreactivity
QVQLVESGGGLVQAGGSLRLSCAASGYTFDWYTMGWYRQAPGKERELVAAISASGVRTYYADSVKGRFTISRDNAKNTVYLQMNSLKPEDTAVYYCNRVYSTSRITQYEFDYWGQGTQVTVSS	low polyreactivity
QVQLVESGGGLVQAGGSLRLSCAASGYTFEPYAMGWYRQAPGKESELVAAISRGGTTNYADSVKGRFTISRDNAKNTVYLQINSLKPEDTAVYYCASSYFRRVFYSIYEYDYWGQGTQVTVSS	low polyreactivity
QVQLVESGGGLVQAGGSLRLSCAASGYTFEYYAMGWYRQAPGKERELVAAISWSGGDTYYADSVKGRFTISRDNAKNTVYLQMNSLNPEDTAVYYCAAVRYYRRRTGSYYHYDYWGQGTQVTVSS	low polyreactivity
QVQLVESGGGLVQAGGSLRLSCAASGYTFFKNAMGWYRQAPGKERELVAAISYSGGRTYYADSVKGRFTISRDNAKNTVYLQMNSLKPEDTAVYYCAKATRVITDDGSYGYWGQGTQVTVSS	high polyreactivity
QVQLVESGGGLVQAGGSLRLSCAASGYTFFYAMGWYRQAPGKERQLVAGISRAGRTKYADSVKGRFTISRDNAKNTVYLQMNSLKPEDTAVYYCAAYARVSSSRFDYWGQGTQVTVSS	high polyreactivity
QVQLVESGGGLVQAGGSLRLSCAASGYTFFYYAMGWYRQAPGKERELVATISGNGGRTYYADSVKGRFTISRDNAKKTVYLQMNSLKPEDTAVYYCAALLYIRSVGYDYWGQGTQVTVSS	low polyreactivity
QVQLVESGGGLVQAGGSLRLSCAASGYTFGEYAMGWYRQAPGKERELVATISLSDGSTNYADSVKGRFTISRDNAKNTVYLQMNSLKPEDTAVYYCATTVWYKKAPYPDGDYWGQGTQVTVSS	low polyreactivity
QVQLVESGGGLVQAGGSLRLSCAASGYTFGHYAMGWYRQAPGKERELVAVNTSGGSTNYADSVKGRFTISRDNAKNTVYLQMNSLKPEDTAVYDCAADLYFYYVWIRDYWGQGTQVTVSS	low polyreactivity
QVQLVESGGGLVQAGGSLRLSCAASGYTFGIYTLGWYRQAPGKERELVADISSTGTTKYADSVKGRFTISRDNAKYTVYLQMNSLKPEDTAVYYCAVRPFWYRMDYWGQGTQVTVSS	low polyreactivity

Sequence	polyreactivity (PSR sort gate)
QVQLVESGGGLVQAGGSLRLSCAASGYTFGSYAMGWYRQAPGKERELVAAIRGSGGSTYYADSVKGRFTISRDNAKNTVYLQMNSLKPEDTAVYYCATSVRRGGRQLYNYWGQGTQVTVSS	high polyreactivity
QVQLVESGGGLVQAGGSLRLSCAASGYTFGSYAMGWYRQAPGKERELVAAISGGGSTNYADSVKGRFTISRDNAKNTVYLQMNSLKPEDTAVYYCAAYPYLYPLRFEEYDHWGQGTQVTVSS	low polyreactivity
QVQLVESGGGLVQAGGSLRLSCAASGYTFGTYAMGWYRQAPGKERELVAAITWRGGSTYYADSVKGRFTISRDNAKYTFYLQMNSLIPEDTAVYYCNADIKQRSDRYDYWGQGTQVTVSS	high polyreactivity
QVQLVESGGGLVQAGGSLRLSCAASGYTFGTYDMGWYRQAPGKERELVAAISIGGSTNYADSVKGRFTISRDNAKNTVYLQMNSLKREDTAVYYCAAEVNVGTLLLSVIVEDGDYWGQGTQVTVSS	low polyreactivity
QVQLVESGGGLVQAGGSLRLSCAASGYTFGTYDMGWYRQAPGKERELVAAISIGGSTNYADSVKGRFTISRDNEKNTVYLQMNSLKPVDTAVYYCAAEVNVGTLLLSVIVEDGDYWGQGTQVTVSS	low polyreactivity
QVQLVESGGGLVQAGGSLRLSCAASGYTFGVYVMGWYRQAPGKERELVAAISGSTYYAYSVKGRFTISRDNAKNTVYLQMNSLKPEDTAVYYCAAESYFFSPRTREKFDYWGQGTQVTVSS	low polyreactivity
QVQLVESGGGLVQAGGSLRLSCAASGYTFGYYTMGWYRQAPGKERELVASIDSGGGTNYADSVKGRFTISRDNAKNTVYLQMNSLKPEDTEVYYCAAEYPLYWVDDFESGWRYYYWGQGTQVTVSS	low polyreactivity
QVQLVESGGGLVQAGGSLRLSCAASGYTFIYYAMGWYRQAPGKERELVATISIDGSTNYADSVKGRFTISRDNAKYSVYLQMNSLKREDTAVYYCNRERYEDYDYWGQGTQVTVSS	high polyreactivity
QVQLVESGGGLVQAGGSLRLSCAASGYTFKTYAMGWYIQAPGKERELVAAISGSGGSTYYADSVKGRFTISRDNAKNTVYLQMNSLKPEDTEVYFCAATNWWGTEYDYWGQGTQVTVSS	high polyreactivity
QVQLVESGGGLVQAGGSLRLSCAASGYTFLANAMGWYRQAPGKERELVAAISSGGTTYYADSVKGRFTISRDNAKNTVYLQMNSLKPEDTAVYYCAAKDTTVFYYDDDYWGQGTQVTVSS	low polyreactivity
QVQLVESGGGLVQAGGSLRLSCAASGYTFLAYAMGWYRQAPGKERELVAAISSGGRTYYADSVKGRFTISRDNAKNTVYLQMHSLKREDTAVYYCAAYPLRYRQYWGFVYWGQGTQVTVSS	high polyreactivity
QVQLVESGGGLVQAGGSLRLSCAASGYTFLDYAMGWYRQAPGKERELVAAINSGGSTYYADSEKGRFTISRDNAKNTVYLQMNSLKPEDTAVYYCAVDPPYSYSLSRYGYWGQGTQVTVSS	low polyreactivity
QVQLVESGGGLVQAGGSLRLSCAASGYTFNKYAMGWYRQATGKGRELVATIRNGGNTYYADSVKGRFTISRDNAKITVYFQMNSLKPEDTAVYYCAATVRGVGYRYYYWGQGTQVTVSS	high polyreactivity
QVQLVESGGGLVQAGGSLRLSCAASGYTFPDYAMGWYRQAPGKERELVAAFRSGGGTNYADSVKGRFTISRDNAKNTVYLQMNSLKPEDTAVYYCAKEWAGGLYDYWGQGTQVTVSS	low polyreactivity
QVQLVESGGGLVQAGGSLRLSCAASGYTFPFYTMGWYRQAPGKERELVAAINSGGSTYYADSVKGRFTISRDNAKNTVYLQMNSLKPEDTAVYYCGAGRHSEDNYWGQGTQVTVSS	high polyreactivity
QVQLVESGGGLVQAGGSLRLSCAASGYTFPRYTMGWYRQAPGKERELVAAINWSGGSTYYADSVKGRFTISRDNAKNTVYLQMNSLKPEDTAVYYCNKAYVSRYDYWGQGTQVTVSS	high polyreactivity
QVQLVESGGGLVQAGGSLRLSCAASGYTFPTYAMGWYRQAPGKERELVAAISIDDGITYYADSVKGRFTISRDNAKNTVYLQMNSLKPEDTAVYYCAADVGIEYDYWGQGTQVTVSS	high polyreactivity
QVQLVESGGGLVQAGGSLRLSCAASGYTFQWYDMGWYRQAPGKERELVASISWRGGSTYYADSVKGRFSISRDNATITVSLQMNSLKPEDTAVYYCAASLWPDYEYDYWGQGTQVTVSS	low polyreactivity
QVQLVESGGGLVQAGGSLRLSCAASGYTFRFNAMGWYRQAPGKEREFVAAIDFGGAGTYYADSVKGRFTISRDNAKNNVYLQMHSLKPEDTAVYYCNARDGVTSEFDYWGQGTQVTVSS	low polyreactivity
QVQLVESGGGLVQAGGSLRLSCAASGYTFRRYAMGWYRQAPGKERELVAAITSRGGSTYYADSVKGRFTISRDNAKNTVYLQMNSLKPEDTAVYYCAADASAYSVLTRDYWGQGTQVTVSS	high polyreactivity
QVQLVESGGGLVQAGGSLRLSCAASGYTFRRYAMGWYRQAPGKERELVAGITRTGNTNYADSVKGRFTISRDNAKNTVYLQMNSLKPEDTAVYYCARDLGGYKRLYDYWGQGTQVTVSS	high polyreactivity
